Assay results: patent US20250163140A1 (Kyowa Kirin, published 2025)
Positions count from the first letter of the chain named. Values joined by “and” are separate entries in the source; they are usually repeats but may differ in a detail not shown here. Equal values may be shown once. Read-outs that look alike come from different tables or passages of the source. Values belong to the binder of their own block, whether it stands above or below them.

What was measured:
[1] = molecular target: T1, Recombinant Human FGF-23 (R&D Systems, Cat No. 2604-FG-025/CF) (human, UniProt Q9GZV9 25-251); experiment: cell-based or functional assay
T1 sequence (looked up): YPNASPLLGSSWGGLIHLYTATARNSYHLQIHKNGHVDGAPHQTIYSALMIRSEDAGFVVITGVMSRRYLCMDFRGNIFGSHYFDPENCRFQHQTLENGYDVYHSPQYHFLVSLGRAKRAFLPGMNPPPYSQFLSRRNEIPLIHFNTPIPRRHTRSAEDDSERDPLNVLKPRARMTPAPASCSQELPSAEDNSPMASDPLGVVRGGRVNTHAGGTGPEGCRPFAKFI

[2] = molecular target: T1, Recombinant Human FGF-23 (R&D Systems, …); experiment: SPR, antibody captured on Protein A chip, FGF-23 analyte
[3] = molecular target: T1, Recombinant Human FGF-23 (R&D Systems, …); experiment: SPR, antibody captured by anti-human IgG, FGF-23 analyte
[4] = molecular target: T1, Recombinant Human FGF-23 (R&D Systems, …); experiment: cell-based or functional assay; remark: listed apart in the source
[5] = molecular target: T1, Recombinant Human FGF-23 (R&D Systems, …); experiment: SPR, antibody captured by anti-human IgG, FGF-23 analyte; remark: listed apart in the source
[6] = molecular target: T1, Recombinant Human FGF-23 (R&D Systems, …); experiment: SPR, antibody captured on Protein A chip, FGF-23 analyte; remark: listed apart in the source
[7] = molecular target: T1, Recombinant Human FGF-23 (R&D Systems, …); experiment: cell-based or functional assay; remark: listed apart in the source
[8] = molecular target: T1, Recombinant Human FGF-23 (R&D Systems, …); experiment: cell-based or functional assay; remark: listed apart in the source
[9] = molecular target: T1, Recombinant Human FGF-23 (R&D Systems, …); experiment: SPR, antibody captured by anti-human IgG, FGF-23 analyte; remark: listed apart in the source
[10] = molecular target: T1, Recombinant Human FGF-23 (R&D Systems, …); experiment: as above; remark: listed apart in the source
[11] = molecular target: T1, Recombinant Human FGF-23 (R&D Systems, …); experiment: cell-based or functional assay; remark: listed apart in the source
[12] = molecular target: T1, Recombinant Human FGF-23 (R&D Systems, …); experiment: SPR, antibody captured on Protein A chip, FGF-23 analyte; remark: listed apart in the source

- FGF23 neutralizing activity IC50 (luciferase promoter assay) [1]: 3.3 ng/mL
- FGF23 neutralizing activity IC50 (luciferase promoter assay), antibody A in same measurement lot [1]: 3.1 ng/mL and 3.3 ng/mL
- Kd [2]: 14.4 pM
- Kd [3]: 9.93 pM
- FGF23 neutralizing activity IC50 (luciferase promoter assay) [4]: 3.2 ng/mL
- FGF23 neutralizing activity IC50 (luciferase promoter assay), antibody A in same measurement lot [4]: 3.2 ng/mL and 2.8 ng/mL
- Kd [5]: 2.06 pM and 2.6 pM and 3.76 pM
- Kd [6]: 8.77 pM
- FGF23 neutralizing activity IC50 (luciferase promoter assay) [7]: 1.2 ng/mL
- FGF23 neutralizing activity IC50 (luciferase promoter assay) [8]: 1.4 ng/mL
- Kd [9]: 4.51 pM
- kon [9]: 9.12e+07 M⁻¹ s⁻¹
- Kd [10]: 3.76 pM and 4.15 pM
B1: antibody A (antibody, human IgG1)
heavy: not shown
light: AIQLTQSPSSLSASVGDRVTITCRASQGISSALVWYQQKPGKAPKLLIYDASSLESGVPSRFSGSGSGTDFTLTISSLQPEDFATYYCQQFNDYFTFGPGTKVDIK
notes: Human IgG1 antibody, kappa light chain; also called A_1; A_2; not shown: human kappa chain constant region

- FGF23 neutralizing activity, fold against antibody A [11]: 3 fold
- Kd [2]: 6.87 pM
- FGF23 neutralizing activity IC50 (luciferase promoter assay) [4]: 1 ng/mL
- fold antigen binding activity against antibody A [12]: 2 fold
B2: antibody A-9 (antibody, V domains shown)
VH: QVQLVQSGAEVKKPGASVKVSCKASGYTFTNHYMHWVRQAPGQGLEWMGIINPISGSTSNAQKFQGRVTMTRDTSTSTVYMELSSLRSEDTAVYYCARDAVDAFDFWGQGTMVTVSS
VL: B1 light with N92W, Y94D, T96D
notes: not shown: human kappa chain constant region
